According to PMC10885737 (Journal of molecular biology, 2023):
Where two headings read alike, the source gives them in different places.

Experiments:
[1] = target: soluble disulfide-stabilized HIV-1 CA hexamer (A14C/E45C/W184A/M185A) (Human immunodeficiency virus type 1 group M subtype B, UniProt P12493, A146C/E177C/M317A/W316A); experiment: biochemical; type: binding
[2] = target: soluble, disulfide-crosslinked HIV-1 CA hexamer (A14C/E45C/W184A/M185A) (HIV-1); experiment: nanoDSF
[3] = target: disulfide-crosslinked A14C/E45C HIV-1 CA tubes (HIV-1); experiment: co-sedimentation
[4] = target: soluble, disulfide-crosslinked HIV-1 CA hexamer (A14C/E45C/W184A/M185A) (HIV-1); experiment: cryo-EM structure
[5] = target: soluble, disulfide-crosslinked HIV-1 CA hexamer (A14C/E45C/W184A/M185A) (HIV-1); experiment: nanoDSF; remark: listed apart in the source
[6] = Observation of proteolysis during protein preparation; type: physicochemical; conditions: recombinant protein preparation from E. coli

Ac-EIIAEDYDDDPVDYE-NH2 [15–6]
Kd [1]: 54 ± 0.4 nM

PQBP1 Nt peptide (residues 1–46) (from UniProt O60828 1-46)
Kd [2]: 503 nM

full-length recombinant PQBP1 (polyglutamine binding protein 1) (from UniProt O60828 1-265) (natural protein)
percent of input pelleted with the CA tubes [3]: 17% | shift in apparent Tm of CA [2]: 2 °C

soluble, disulfide-crosslinked HIV-1 CA hexamer (A14C/E45C/W184A/M185A) (complex)
stoichiometry N [4]: 6

B1: PQBP1 15-mer peptide 15–6 (peptide)
peptide: Ac-EIIAEDYDDDPVDYE-NH2
Kd [5]: 54 nM

B2: DE-to-G: recombinant DE-to-G PQBP1 mutant protein (protein)
chain: MPLPVALQTRLAKRGILKHLEPEPGGGIIAEDYGGGPVDYEATRLEGLPPSWYKVFDPSCGLPYYWNADTDLVSWLSPHDPNSVVTKSAKKLRSSNADAEEKLDRSHDKSDRGHDKSDRSHEKLDRGHDKSDRGHDKSDRDRERGYDKVDRERERDRERDRDRGYDKADREEGKERRHHRREELAPYPKSKKAVSRKDEELDPMDPSSYSDAPRGTWSTGLPKRNEAKTGADTTAAGPLFQQRPYPSPGAVLRANAEASRTKQQD
modifications: left off: His-tag (with Gly-Gly linker), C-terminal, state not stated
Susceptibility to proteolysis [6]: prone to proteolysis
